“Also recorded” adds a separate entry of the source.

For one assay, the target named is T1, I domain of α11β1 (Homo sapiens, UniProt Q9UKX5).
T1 construct: An in-house generated I domain of α11β1 was used; made in house
T1 sequence (Q9UKX5 164-345 limits assumed): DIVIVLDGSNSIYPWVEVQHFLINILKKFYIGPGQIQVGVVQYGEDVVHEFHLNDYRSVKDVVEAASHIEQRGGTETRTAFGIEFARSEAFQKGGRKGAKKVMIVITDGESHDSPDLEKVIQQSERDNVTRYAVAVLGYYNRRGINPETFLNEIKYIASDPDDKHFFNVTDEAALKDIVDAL
Nature of the assay: ELISA binding to in-house generated I domain of α11β1. Particulars: for I Domain binding: Yes/No. On the procedure: (§1) 0.25 μg/mL of target antigen (recombinant human or mouse α11β1) was plated in a 96-well plate over night at 4° C. Plates were washed (PBS with 0.1% Tween-20), blocked (PBS with 2% BSA and 0.05% Tween-20) for 1 hour at room temperature and incubated with a range of antibody concentrations for 1 hour at room temperature. Subsequently, plates were washed and incubated with biotinylated anti-rabbit/mouse/human IgG in a 1:1000 dilution buffer and incubated for 1 hour at room temperature. After washing the plates, Streptavidin HRP was added at 1:200 in dilution buffer and incubated for 1 hour at room temperature. Ultra TMB ELISA substrate solution was added and the plates incubated for 5 minutes on a plate shaker. The reaction was stopped by adding stop solution to each well and plates were read at 450 nm.
22 Data was also collected to determine whether antibodies of interest bind to the I domain of α11β1. An in-house generated I domain of α11β1 was used. […] Mouse antibodies 10-F23, 10-L15, 7-O8, 6-A12, 9-G05 and 9-E16 and rabbit antibodies 7-H12 and 2-D3 were also tested for binding against the in-house generated α11031 domain. FIGS. 3A and 3B show graphs illustrating binding data from exemplary mAbs.

Assay [1] relates to CHO-K1 cells expressing human α11. Nature of the assay: Cell adhesion inhibition (xCelligence), type I collagen. It is filed as cell-based. Particulars: for inhibition of cell adhesion to type I collagen: CHO-K1 hu α11 cells; for Inhibition of CHO-K1 adhesion to collagen: Yes/No. On the procedure: 0.6×10^6 cells/mL were incubated with each antibody at a range of concentrations for 20 minutes at 37° C. E-Plate VIEW 96 PET plate coated with 100 ng/mL type I collagen or PBS overnight at room temperature was blocked in 3% BSA for 1 house at room temperature. After washing the plate with PBS, cell and antibody mixture was added to the wells and the plate was places into an xCelligence machine. Cell adhesion was recorded over 6 hours. The time point of maximum cell adhesion was used for comparison relative to control.
A CHO-K1 hu α11 cell line was used to assess the ability of mAbs to block α11β1-mediated binding to type I collagen. […] In the “Untreated” condition, cells were plated on type I collagen but no antibody was added and in the “Uncoated” condition, cells were seeded onto BSA-coated wells containing no type I collagen. Statistics were performed using one-way ANOVA followed by Dunnett's multiple comparisons test. […] Therefore, it is possible that these mAbs bind on an α11β1 domain that keeps the integrin in a low or intermediate affinity state. […] Nine human mAbs were also tested for their ability to inhibit the binding of human CHO-α11 cells to type I collagen.

In assay [2] the test system is human pulmonary fibroblasts (HPFs). Nature of the assay: FACS antibody binding to human pulmonary fibroblasts. To be noted: for HPF FACS: binding Yes/No. On the procedure: (§2) Human Pulmonary Fibroblasts (ScienCell) were cultured in complete Fibroblast Growth Medium (ScienCell) until 80% confluent in T-150 flasks. Cells were washed and harvested using Accutase. Cells were seeded into T-150 flasks at 7,500 cells/cm^2 in complete FGF and cultured for 72 hours. Cells were then washed and starved in serum reduced medium for 24 hours. After starvation, cells were treated with TGFβ-1 (R&D Systems) for 72 hours. Cells were harvested using Accutase and seeded in 96-well conical bottom plates. Cells were blocked with Heat Inactived Fetal Bovine Serum (Gibco) for 30 minutes at 4° C. Cells were then incubated with anti-α11 antibodies at the doses described in each figure for 30 minutes at 4° C. A human anti-α11 antibody (Creative BioLabs) was included as a positive control as well as the appropriate IgG isotype negative controls. Cells were washed twice and incubated with PE conjugated secondary antibodies specific to the IgG class of the anti-α11 antibodies being tested for 30 minutes at 4° C. Cells were washed twice and fixed in 1% PFA for 30 minutes. Cells were acquired on a FACS Verse […]. Data were analyzed by gating on single cells and determining the geometric Mean Fluorescence Intensity (gMFI) in the PE channel for each sample.
(§3) Binding to a physiologically relevant primary human cell type was also tested. Human pulmonary fibroblasts (HPF) and TGFβ treatment were used to induce a fibroblast-to-myofibroblast transition (FMT), giving rise to myofibroblasts (MF). […] Additionally, HPFs express α11 and α2β1, other collagen binding receptors, which means that HPFs can be to test cross-reactivity of antibodies of interest.

Another assay concerns the target human α11β1 (Homo sapiens, UniProt Q9UKX5). Kind of assay: ELISA binding to recombinant human α11β1. To be noted: binding Yes/No. On the procedure: as §1
The subject of the next assay is myofibroblasts (MF). Nature of the assay: FACS antibody binding to myofibroblasts. Also noted: species or system human. Particulars: binding Yes/No. On the procedure: as §2, §3
A further assay addresses mouse α11β1 (Mus musculus, UniProt P61622). Kind of assay: ELISA binding to recombinant mouse α11β1. To be noted: for Murine α11β1 ELISA: binding Yes/No. The method, then:
as §1

mouse α11β1, sequence (P61622 23-1141 limits assumed): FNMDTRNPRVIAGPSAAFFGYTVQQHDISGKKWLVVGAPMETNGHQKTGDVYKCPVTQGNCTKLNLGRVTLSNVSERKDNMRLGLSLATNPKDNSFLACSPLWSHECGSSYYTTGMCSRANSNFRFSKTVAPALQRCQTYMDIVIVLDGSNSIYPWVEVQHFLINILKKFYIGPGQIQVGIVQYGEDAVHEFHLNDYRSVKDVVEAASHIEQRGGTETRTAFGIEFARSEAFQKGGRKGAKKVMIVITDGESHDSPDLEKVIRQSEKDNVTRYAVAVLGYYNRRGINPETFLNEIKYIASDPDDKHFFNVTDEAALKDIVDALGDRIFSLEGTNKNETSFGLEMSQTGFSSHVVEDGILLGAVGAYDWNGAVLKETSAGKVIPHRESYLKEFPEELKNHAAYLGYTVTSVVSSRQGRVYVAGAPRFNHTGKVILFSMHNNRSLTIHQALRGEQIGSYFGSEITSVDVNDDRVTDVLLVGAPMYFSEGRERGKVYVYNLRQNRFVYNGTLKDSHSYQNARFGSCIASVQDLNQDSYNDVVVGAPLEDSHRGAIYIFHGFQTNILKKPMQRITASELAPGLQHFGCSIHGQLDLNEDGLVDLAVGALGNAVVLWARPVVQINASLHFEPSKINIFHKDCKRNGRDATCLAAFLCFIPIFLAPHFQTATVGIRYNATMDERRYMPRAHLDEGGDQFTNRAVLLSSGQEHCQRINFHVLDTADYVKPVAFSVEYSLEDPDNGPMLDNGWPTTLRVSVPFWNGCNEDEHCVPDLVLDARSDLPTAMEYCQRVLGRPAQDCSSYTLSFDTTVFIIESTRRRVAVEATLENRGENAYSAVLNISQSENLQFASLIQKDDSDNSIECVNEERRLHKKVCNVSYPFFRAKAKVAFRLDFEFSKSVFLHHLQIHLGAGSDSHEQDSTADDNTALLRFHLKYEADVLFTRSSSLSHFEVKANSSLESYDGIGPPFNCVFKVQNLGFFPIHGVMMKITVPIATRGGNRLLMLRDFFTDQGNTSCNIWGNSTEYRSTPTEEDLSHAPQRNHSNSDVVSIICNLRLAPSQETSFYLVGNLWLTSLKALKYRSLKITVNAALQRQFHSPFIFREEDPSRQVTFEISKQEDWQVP
mouse α11β1, sequence (P09055 21-728 partner limits assumed): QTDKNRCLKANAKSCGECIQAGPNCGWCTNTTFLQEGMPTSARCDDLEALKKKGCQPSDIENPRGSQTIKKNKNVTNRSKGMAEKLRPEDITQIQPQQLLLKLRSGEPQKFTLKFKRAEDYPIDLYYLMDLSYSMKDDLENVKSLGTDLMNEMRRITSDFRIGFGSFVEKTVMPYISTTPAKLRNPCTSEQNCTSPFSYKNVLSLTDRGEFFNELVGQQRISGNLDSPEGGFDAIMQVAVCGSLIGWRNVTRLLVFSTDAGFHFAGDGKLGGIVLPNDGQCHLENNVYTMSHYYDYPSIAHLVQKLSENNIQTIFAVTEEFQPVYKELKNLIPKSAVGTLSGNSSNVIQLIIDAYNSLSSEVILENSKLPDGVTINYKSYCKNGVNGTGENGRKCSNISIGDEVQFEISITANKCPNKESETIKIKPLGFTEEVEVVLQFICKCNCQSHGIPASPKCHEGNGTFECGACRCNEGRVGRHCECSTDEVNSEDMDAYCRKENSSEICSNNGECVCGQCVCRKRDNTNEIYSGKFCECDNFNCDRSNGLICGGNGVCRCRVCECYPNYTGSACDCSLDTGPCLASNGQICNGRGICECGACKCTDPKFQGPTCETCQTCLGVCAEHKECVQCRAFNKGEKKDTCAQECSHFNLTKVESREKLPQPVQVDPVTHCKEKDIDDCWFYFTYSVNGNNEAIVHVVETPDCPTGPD
human α11β1, sequence (Q9UKX5 23-1141 limits assumed): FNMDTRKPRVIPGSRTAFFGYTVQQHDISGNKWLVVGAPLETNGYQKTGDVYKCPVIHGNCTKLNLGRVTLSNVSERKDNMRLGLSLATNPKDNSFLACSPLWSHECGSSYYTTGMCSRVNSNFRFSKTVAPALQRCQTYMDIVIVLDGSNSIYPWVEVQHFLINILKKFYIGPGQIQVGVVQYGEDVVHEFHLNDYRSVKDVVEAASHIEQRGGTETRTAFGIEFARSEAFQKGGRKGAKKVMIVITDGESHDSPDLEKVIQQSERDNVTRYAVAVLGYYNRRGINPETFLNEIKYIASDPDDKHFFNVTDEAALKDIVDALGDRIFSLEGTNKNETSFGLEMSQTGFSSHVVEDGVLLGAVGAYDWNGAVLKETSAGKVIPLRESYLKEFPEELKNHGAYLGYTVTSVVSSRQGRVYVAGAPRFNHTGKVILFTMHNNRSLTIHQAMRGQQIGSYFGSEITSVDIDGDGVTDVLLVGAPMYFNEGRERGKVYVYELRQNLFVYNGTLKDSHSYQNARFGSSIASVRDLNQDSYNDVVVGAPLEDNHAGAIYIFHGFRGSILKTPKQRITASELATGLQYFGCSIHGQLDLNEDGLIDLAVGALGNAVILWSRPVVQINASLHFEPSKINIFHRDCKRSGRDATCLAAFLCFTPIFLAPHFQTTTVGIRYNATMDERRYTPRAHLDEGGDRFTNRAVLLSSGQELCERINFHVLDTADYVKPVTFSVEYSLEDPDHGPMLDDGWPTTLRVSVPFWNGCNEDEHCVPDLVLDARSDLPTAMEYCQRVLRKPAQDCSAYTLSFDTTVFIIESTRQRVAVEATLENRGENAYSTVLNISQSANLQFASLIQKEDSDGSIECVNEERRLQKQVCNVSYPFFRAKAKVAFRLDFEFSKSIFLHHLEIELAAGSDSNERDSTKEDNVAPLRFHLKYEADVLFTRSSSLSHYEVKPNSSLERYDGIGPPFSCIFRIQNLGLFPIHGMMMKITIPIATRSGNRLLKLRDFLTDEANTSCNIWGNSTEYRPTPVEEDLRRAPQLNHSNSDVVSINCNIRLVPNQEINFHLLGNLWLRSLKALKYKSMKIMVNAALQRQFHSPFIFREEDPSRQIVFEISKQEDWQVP
human α11β1, sequence (P05556 21-728 partner limits assumed): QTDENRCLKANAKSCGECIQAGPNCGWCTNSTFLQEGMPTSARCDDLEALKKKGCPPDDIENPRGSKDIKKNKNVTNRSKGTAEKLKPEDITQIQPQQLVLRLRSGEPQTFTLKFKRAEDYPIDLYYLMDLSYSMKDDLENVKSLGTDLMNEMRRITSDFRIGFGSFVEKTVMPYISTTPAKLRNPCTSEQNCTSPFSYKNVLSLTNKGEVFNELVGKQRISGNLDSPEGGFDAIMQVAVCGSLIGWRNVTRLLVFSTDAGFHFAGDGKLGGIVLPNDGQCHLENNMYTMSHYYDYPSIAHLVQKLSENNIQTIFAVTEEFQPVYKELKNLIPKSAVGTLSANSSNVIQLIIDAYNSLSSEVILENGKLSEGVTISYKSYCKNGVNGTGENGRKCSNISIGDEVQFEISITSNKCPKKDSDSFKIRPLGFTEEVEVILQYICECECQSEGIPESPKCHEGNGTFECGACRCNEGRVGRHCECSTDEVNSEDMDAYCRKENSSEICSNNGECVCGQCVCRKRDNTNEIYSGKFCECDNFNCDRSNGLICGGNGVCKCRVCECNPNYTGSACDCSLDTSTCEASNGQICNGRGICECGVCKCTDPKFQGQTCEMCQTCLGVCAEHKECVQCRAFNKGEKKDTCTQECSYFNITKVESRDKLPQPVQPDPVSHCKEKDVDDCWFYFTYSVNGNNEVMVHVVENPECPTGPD

B1: 9-E16: mouse anti-α11β1 mAb; VH SEQ ID NO: 111, VL SEQ ID NO: 112 (antibody, V domains shown)
VH: EVQLQQSGPELVKPGASVKISCKASGYTFTDYYMHWVKQKPGQGLEWIGEIYPGSGNPYYNEKFKGKATLTADKSSSSAYMQLSSLTSEDSAVYFCARTSYGRVGTGFAYWGQGTLVTVSA
VL: NFVMTQTPLSLPVSLGDQASISCRSSQSLLHSNGNTYLHWYLQKPGQSPKLLIYKVSNRFSGVPDRFSGSGSGTDFTLKINRVETEDLGIYFCSQSSHVPTFGAGTKLELK
On to B1, for which, in the assay with I domain of α11β1, the “I-domain binder” value is “I domain binders; also recorded: I-domain binders; also recorded: bound the I domain” and the “I Domain binding” value is on record as “Yes”. In addition, in assay [1], the “inhibition of cell adhesion to type I collagen” value (from here on “inhibition of cell adhesion”) is listed as “significantly blocked cell adhesion; also recorded: decrease cell adhesion” and the “Inhibition of CHO-K1 adhesion to collagen” value (from here on “Inhibition … to collagen”) is “Yes”. Further, in assay [2] (FACS), the “binding to HPFs” value is “some HPF binding”. Moreover, the “HPF FACS” value in assay [2] is “Low”. For the same molecule, the “Human α11β1 ELISA” value with human α11β1 is “Yes”. Further, the “MF FACS” value in the assay on myofibroblasts (MF) is recorded as “Yes”. Besides, in the assay with mouse α11β1, the “Murine α11β1 ELISA” value is “Yes”.

B2: 9-G05: mouse anti-α11β1 mAb; VH SEQ ID NO: 103, VL SEQ ID NO: 104 (antibody, V domains shown)
VH: EVQLQQSGPELVKPGASVKIPCKASGYTFPDYNMDWVKQSHGKSLEWIGYINPDNGGTIYNQKFKGKATLTVDKSSSTAYMELRSLTSEDTAVYYCARLDSSGYGYYAMDYWGQGTSVTVSS
VL: DIVLTQSPASLAVSLGQRATISCRASESVDNYGISFMHWYQQKPGQPPKLLIYRASNLDSEIPARFSGSGSRTDFTLTIDPVETDDVATYYCQQSYKDPRTFGGGTKLEIK
Regarding B2, in the assay with I domain of α11β1, the “I-domain binder” value is listed as “I domain binders; also recorded: I-domain binders; also recorded: bound the I domain” and the “I Domain binding” value was “Yes”. Further, in assay [1], the “inhibition of cell adhesion” value was “significantly blocked cell adhesion; also recorded: decrease cell adhesion” and the “Inhibition … to collagen” value was “Yes”. Also, the “HPF FACS” value in assay [2] is reported as “No”. Also, the “Human α11β1 ELISA” value with human α11β1 is “Yes”. Besides, the “MF FACS” value with myofibroblasts (MF) is on record as “Yes”. Also, the “Murine α11β1 ELISA” value with mouse α11β1 is listed as “Yes”.

B3: 16G7: rabbit anti-α11β1 mAb; heavy chain SEQ ID NO: 159, light chain SEQ ID NO: 160 (antibody)
heavy: METGLRWLLLVAVFKGVQCQEQLVESGGDLVKPGASLTLTCTASGFSFNKNYWMCWVRQAPGKGLEWIGCIYNGDGNTYYASWVNGRFTISKTSSTTVTLQMTSLTVADTAIYFCARLLNMWGPGTLVTVSSGQPKAPSVFPLAPCCGDTPSSTVTLGCLVKGYLPEPVTVTWNSGTLTNGVRTFPSVRQSSGLYSLSSVVSVTSSSQPVTCNVAHPATNTKVDKTVAPSTCSKPMCPPPELPGGPSVFIFPPKPKDTLMISRTPEVTCVVVDVSQDDPEVQFTWYINNEQVRTARPPLREQQFNSTIRVVSTLPIAHQDWLRGKEFKCKVHNKALPAPIEKTISKARGQPLEPKVYTMGPPREELSSRSVSLTCMINGFYPSDISVEWEKNGKAEDNYKTTPTVLDSDGSYFLYSKLSVPTSEWQRGDVFTCSVMHEALHNHYTQKSISRSPGK
light: MDTRAPTQLLGLLLLWLPGARCADIVMTQTPASVEAAVGGTVTIKCQASESIGNALAWYQQKPGQPPKLLIYTAATLASGVPSRFSGSGSGTEFTLTISGVQCDDAATYYCQSYYFTSVSSYGNAFGGGTEVVVKGDPVAPTVLIFPPAADQVATGTVTIVCVANKYFPDVTVTWEVDGTTQTTGIENSKTPQNSADCTYNLSSTLTLTSTQYNSHKEYTCKVTQGTTSVVQSFNRGDC
Regarding B3, in the assay with I domain of α11β1, the “I Domain binding” value was “No”. In assay [1], the “inhibition of cell adhesion” value is on record as “didn't have an effect on cell adhesion” and the “Inhibition … to collagen” value is “No”. For the same molecule, in assay [2], the “HPF FACS” value was “No”. For the same molecule, in the assay with human α11β1, the “Human α11β1 ELISA” value is listed as “Yes”. The “MF FACS” value in the assay with myofibroblasts (MF) is recorded as “Yes”. The “Murine α11β1 ELISA” value with mouse α11β1 is “Yes”.

B4: 24E4G6: rat anti-α11β1 mAb; VH SEQ ID NO: 147, VL SEQ ID NO: 148 (antibody, V domains shown)
VH: MELELSLIFIFSLLKDVQCEVQLVESGGSLVQPGGSLKLSCVASGYTFSNYWMDWVRQSPGKSLEWIGEINTDGRRTNYAPSIKDRFTISRDNAKSTLYLQMSNVKSDDTAIYYCTILRVYPHYFDYWGQGVMVTVSS
VL: MMSPAQFLFLLMLWIQEARGDVVMTQTPPSLSVAIGQSVSISCKSSQSLVYSDGETYLHWFLQSPGRSPKRLIYHVSNLGSGVPDRFSGTGSLTDFTLRISRVEAEDLGVYYCAQTTHFPPTFGAGTKLELK
For B4, in the assay with I domain of α11β1, the “I-domain binder” value was “did not bind to the I-domain; also recorded: neither of the antibodies was found to be an I-domain binder” and the “I Domain binding” value is recorded as “No”. Besides, in assay [1], the “inhibition of cell adhesion” value was “nor did it inhibit cell adhesion” and the “Inhibition … to collagen” value is given as “No”. Also, the “HPF FACS” value in assay [2] is reported as “No”. For the same molecule, the “Human α11β1 ELISA” value in the assay with human α11β1 is “Yes”. Also, the “MF FACS” value in the assay with myofibroblasts (MF) is reported as “Yes”. In addition, the “Murine α11β1 ELISA” value with mouse α11β1 is “No/Low”.

B5: 16E10: rabbit anti-α11β1 mAb; heavy chain SEQ ID NO: 161, light chain SEQ ID NO: 162 (antibody)
heavy: METGLRWLLLVAVLKGVQCQSLEESGGDLVKPGASLTLTCRVSGFSFSSSYYMCWVRQAPGKGLEWIACIGTTRGSTYYATWAKGRFTISKISSTTVTLQMTSLTDADTATYFCARDATGYRINTIGLYFNLWGPGTLVTVSSGQPKAPSVFPLAPCCGDTPSSTVTLGCLVKGYLPEPVTVTWNSGTLTNGVRTFPSVRQSSGLYSLSSVVSVTSSSQPVTCNVAHPATNTKVDKTVAPSTCSKPMCPPPELPGGPSVFIFPPKPKDTLMISRTPEVTCVVVDVSQDDPEVQFTWYINNEQVRTARPPLREQQFNSTIRVVSTLPIAHQDWLRGKEFKCKVHNKALPAPIEKTISKARGQPLEPKVYTMGPPREELSSRSVSLTCMINGFYPSDISVEWEKNGKAEDNYKTTPTVLDSDGSYFLYSKLSVPTSEWQRGDVFTCSVMHEALHNHYTQKSISRSPGK
light: MDTRAPTQLLGLLLLWLPGARCAFELTQTPSSVEAAVGGTPTIKCQASQTIYSYLSWYQQKPGQPPKLLIYEASKLASGVPSRFSGSGSGTDYTLTISDLECADAATYYCQSYHGTASTEYNTFGGGTEVVVRGDPVAPTVLIFPPAADQVATGTVTIVCVANKYFPDVTVTWEVDGTTQTTGIENSKTPQNSADCTYNLSSTLTLTSTQYNSHKEYTCKVTQGTTSVVQSFNRGDC
With B5, in the assay with I domain of α11β1, the “I Domain binding” value is “No”. For the same molecule, in assay [1], the “inhibition of cell adhesion” value was “inhibit both ligand binding and FMT”; the “Inhibition … to collagen” value was “Yes”. Besides, the “HPF FACS” value in assay [2] is “No”. The “Human α11β1 ELISA” value in the assay with human α11β1 is “Yes”. Also, in the assay with myofibroblasts (MF), the “MF FACS” value was “Yes”. In the assay with mouse α11β1, the “binding to mouse α11β1” value was “does not bind mouse α11β1” and the “Murine α11β1 ELISA” value is listed as “No”.

The values are drawn from patent US12460006B2, “Antibodies against integrin alpha 11 beta 1” (Momenta Pharmaceuticals, Inc., priority 2019, dated 2025).
